The assay concerns the target membrane type 1-matrix metalloproteinase (MT1-MMP), P50281. Description: not stated at the place; fluorescence polarization with MT1-MMP hemopexin domain per Examples 7-8.

*1 amine or outer side, *2 acyl side, *3 side chain or, on linkers, in order; H or OH if unused. Bridges are numbered along the chain shown (N, C = ends). [ ]: non-standard residue; d: D form. The star is where a group is joined. DOTA = O=C(O)CN1CCN(CC(=O)O)CCN(CC(=O)*)CCN(CC(=O)O)CC1; 1Nal = N[C@@H](Cc1cccc2ccccc12)C(=O)O; TBMB = c1c(C[*:1])cc(C[*:3])cc1C[*:2]; Tle = CC(C)(C)[C@H](N)C(=O)O

B1: I-23 (peptide)
peptide: {DOTA}-AC[dA]NE[1Nal][dA]CEDFYD[Tle]C-NH2
modifications: linker 2-8-15 via TBMB
SMILES: C[C@H](NC(=O)CN1CCN(CC(=O)O)CCN(CC(=O)O)CCN(CC(=O)O)CC1)C(=O)N[C@H]1CSCc2cc3cc(c2)CSC[C@H](NC(=O)[C@@H](C)NC(=O)[C@H](Cc2cccc4ccccc24)NC(=O)[C@H](CCC(=O)O)NC(=O)[C@H](CC(N)=O)NC(=O)[C@@H](C)NC1=O)C(=O)N[C@@H](CCC(=O)O)C(=O)N[C@@H](CC(=O)O)C(=O)N[C@@H](Cc1ccccc1)C(=O)N[C@@H](Cc1ccc(O)cc1)C(=O)N[C@@H](CC(=O)O)C(=O)N[C@@H](C(C)(C)C)C(=O)N[C@H](C(N)=O)CSC3
In the case of B1, the Kd came out at 520 pM.

The values are drawn from patent publication US12552837.
